According to patent US20050100897A1, “NFAT transcription factors in tumor progression” (priority 2002, published 2005):

Tests used:
Type in all cases: cell-based, human
[1] = tested on: Clone A colon cancer cell line; assay: Matrigel chemoinvasion assay, Clone A cells; conditions: transient transfection
Experimental: Invasion assays were performed using standard methods (see Shaw et al., Cell 91:949-960, 1997) using Transwell chambers coated with Matrigel. Briefly, cells were co-transfected with the indicated NFAT constructs, 1 μg EGFP-N1 (Clontech) and 1 μg pCS2-(n)β-Gal, a •gal expression vector (Dave Turner, University of Michigan) using the Lipofectamine procedure (Life Technologies), and after twenty-four hours, the cells were resuspended in serum-free medium containing 0.1% bovine serum albumin (BSA) and added to each well. […] Cells that stained positive for β-galactosidase expression were counted, and the mean of triplicate assays for each experimental condition was used as % relative invasion.

[2] = tested on: parental MDA-MB-435 β4-negative cells; assay: Matrigel invasion assay, parental MDA-MB-435 cells; conditions: transient transfection, parental MDA-MB-435 (no α6β4)
Experimental: (§1) FIGS. 5A-5B are graphs and immunoblots showing the effects of NFAT1 and NFAT5 over expression on transfected cells. Parental MDA-MB-435 β4-negative cells were transiently transfected with wild-type NFAT-1 (FIG. 5A) tagged with the HA epitope (NFAT-1) or with wild-type NFAT-5 (FIG. 5B) tagged with the myc epitope (NFAT-5) or control vector alone (vector). Following the transfection protocol, cells were assayed for their ability to migrate or to invade Matrigel. Relative migration/invasion were determined by comparing the amount of migration/invasion obtained from NFAT transfectants to that obtained from cells transfected with vector alone, which was assigned a value of 100%. An aliquot of transfected cells was lysed and nuclear extracts were resolved by SDS PAGE and immunoblotted with anti-HA or anti-myc. The data shown are mean values (±SEM) of 3 experiments performed in triplicate.
(§2) Invasion assays were performed using standard methods (see Shaw et al., Cell 91:949-960, 1997) using Transwell chambers coated with Matrigel. […] Cells that stained positive for β-galactosidase expression were counted, and the mean of triplicate assays for each experimental condition was used as % relative invasion. […]

[3] = tested on: parental MDA-MB-435 cells; assay: Chemotactic migration assay (Transwell without Matrigel), parental MDA-MB-435; conditions: transient transfection; conditioned media present, no Matrigel
Experimental: as §1
Increased cell migration was intimately linked with carcinoma invasion. […]
as §2

B1: DBD5: NFAT-5 dominant negative mutant comprising amino acids 175-471 (SEQ ID NO:14) of NFAT5a (protein, listed as Homo sapiens)
chain: GNGTLENQKGTGVKKSPMLCGQYPVKSEGKELKIVVQPETQHRARYLTEGSRGSVKDRTQQGFPTVKLEGHNEPVVLQVFVGNDSGRVKPHGFYQACRVTGRNTTPCKEVDIEGTTVIEVGLDPSNNMTLAVDCVGILKLRNADVEARIGIAGSKKKSTRARLVFRVNIMRKDGSTLTLQTPSSPILCTQPAGVPEILKKSLHSCSVKGEEEVFLIGKNFLKGTKVIFQENVSDENSWKSEAEIDMELFHQNHLIVKVPPYHDQHITLPVSVGIYVVTNAGRSHDVQPFTYTPDPAA
Q: B1 was tested. Which “carcinoma invasion (relative invasion vs vector alone)” value [1] did it give?
A: also inhibited invasion

B2: wild-type NFAT-5: wild-type NFAT-5 tagged with the myc epitope, transiently overexpressed (protein)
chain: MSQTSGGEAGSPPPAVVAADASSAPSSSSMGGACSSFTTSSSPTIYSTSVTDSKAMQVESCSSAVGVSNRGVSEKQLTSNTVQQHPSTPKRHTVLYISPPPEDLLDNSRMSCQDEGCGLESEQSCSMWMEDSPSNFSNMSTSSYNDNTEVPRKSRKRNPKQRPGVKRRDCEESNMDIFDADSAKAPHYVLSQLTTDNKGNSKAGNGTLENQKGTGVKKSPMLCGQYPVKSEGKELKIVVQPETQHRARYLTEGSRGSVKDRTQQGFPTVKLEGHNEPVVLQVFVGNDSGRVKPHGFYQACRVTGRNTTPCKEVDIEGTTVIEVGLDPSNNMTLAVDCVGILKLRNADVEARIGIAGSKKKSTRARLVFRVNIMRKDGSTLTLQTPSSPILCTQPAGVPEILKKSLHSCSVKGEEEVFLIGKNFLKGTKVIFQENVSDENSWKSEAEIDMELFHQNHLIVKVPPYHDQHITLPVSVGIYVVTNAGRSHDVQPFTYTPDPAAAGALNVNVKKEISSPARPCSFEEAMKAMKTTGCNLDKVNIIPNALMTPLIPSSMIKSEDVTPMEVTAEKRSSTIFKTTKSVGSTQQTLENISNIAGNGSFSSPSSSHLPSENEKQQQIQPKAYNPETLTTIQTQDISQPGTFPAVSASSQLPNSDALLQQATQFQTRETQSREILQSDGTVVNLSQLTEASQQQQQSPLQEQAQTLQQQISSNIFPSPNSVSQLQNTIQQLQAGSFTGSTASGSSGSVDLVQQVLEAQQQLSSVLFSAPDGNENVQEQLSADIFQQVSQIQSGVSPGMFSSTEPTVHTRPDNLLPGRAESVHPQSENTLSNQQQQQQQQQQVMESSAAMVMEMQQSICQAAAQIQSELFPSTASANGNLQQSPVYQQTSHMMSALSTNEDMQMQCELFSSPPAVSGNETSTTTTQQVATPGTTMFQTSSSGDGEETGTQAKQIQNSVFQTMVQMQHSGDNQPQVNLFSSTKSMMSVQNSGTQQQGNGLFQQGNEMMSLQSGNFLQQSSHSQAQLFHPQNPIADAQNLSQETQGSLFHSPNPIVHSQTSTTSSEQMQPPMFHSQSTIAVLQGSSVPQDQQSTNIFLSQSPMNNLQTNTVAQEAFFAAPNSISPLQSTSNSEQQAAFQQQAPISHIQTPMLSQEQAQPPQQGLFQPQVALGSLPPNPMPQSQQGTMFQSQHSIVAMQSNSPSQEQQQQQQQQQQQQQQQQQSILFSNQNTMATMASPKQPPPNMIFNPNQNPMANQEQQNQSIFHQQSNMAPMNQEQQPMQFQSQSTVSSLQNPGPTQSESSQTPLFHSSPQIQLVQGSPSSQEQQVTLFLSPASMSALQTSINQQDMQQSPLYSPQNNMPGIQGATSSPQPQATLFHNTAGGTMNQLQNSPGSSQQTSGMFLFGIQNNCSQLLTSGPATLPDQLMAISQPGQPQNEGQPPVTTLLSQQMPENSPLASSINTNQNIEKIDLLVSLQNQGNNLTGSF
Q: For B2, which carcinoma invasion [2] is on record?
A: this was not observed

Q: What about the chemotactic migration [3] of the same molecule?
A: sufficient to increase chemotactic migration

B3: wild-type NFAT-1: wild-type NFAT-1 tagged with the HA epitope, transiently overexpressed (protein)
chain: MNAPERQPQPDGGDAPGHEPGGSPQDELDFSILFDYEYLNPNEEEPNAHKVASPPSGPAYPDDVMDYGLKPYSPLASLSGEPPGRFGEPDRVGPQKFLSAAKPAGASGLSPRIEITPSHELIQAVGPLRMRDAGLLVEQPPLAGVAASPRFTLPVPGFEGYREPLCLSPASSGSSASFISDTFSPYTSPCVSPNNGGPDDLCPQFQNIPAHYSPRTSPIMSPRTSLAEDSCLGRHSPVPRPASRSSSPGAKRRHSCAEALVALPPGASPQRSRSPSPQPSSHVAPQDHGSPAGYPPVAGSAVIMDALNSLATDSPCGIPPKMWKTSPDPSPVSAAPSKAGLPRHIYPAVEFLGPCEQGERRNSAPESILLVPPTWPKPLVPAIPICSIPVTASLPPLEWPLSSQSGSYELRIEVQPKPHHRAHYETEGSRGAVKAPTGGHPVVQLHGYMENKPLGLQIFIGTADERILKPHAFYQVHRITGKTVTTTSYEKIVGNTKVLEIPLEPKNNMRATIDCAGILKLRNADIELRKGETDIGRKNTRVRLVFRVHIPESSGRIVSLQTASNPIECSQRSAHELPMVERQDTDSCLVYGGQQMILTGQNFTSESKVVFTEKTTDGQQIWEMEATVDKDKSQPNMLFVEIPEYRNKHIRTPVKVNFYVINGKRKRSQPQHFTYHPVPAIKTEPTDEYDPTLICSPTHGGLGSQPYYPQHPMVAESPSCLVATMAPCQQFRTGLSSPDARYQQQNPAAVLYQRSKSLSPSLLGYQQPALMAAPLSLADAHRSVLVHAGSQGQSSALLHPSPTNQQASPVIHYSPTNQQLRCGSHQEFQHIMYCENFAPGTTRPGPPPVSQGQRLSPGSYPTVIQQQNATSQRAAKNGPPVSDQKEVLPAGVTIKQEQNLDQTYLDDELIDTHLSWIQNIL
Q: Which carcinoma invasion [2] does the source give for B3 here?
A: also induced carcinoma invasion

Q: What about the chemotactic migration [3] of the same molecule?
A: sufficient to increase chemotactic migration
